Literature values in patent US20150010606A1, “INTRA-ARTICULAR INJECTION AND IMPLANT ATTACHMENT OF MOLECULE CONSISTING OF LUBRICIN AND EXTRACELLULAR SUPEROXIDE DISMUTASE OR HYALURONIC ACID AND EXTRACELLULAR SUPEROXIDE DISMUTASE” (Arthrex, Inc., priority 2013, published 2015).

Legend:
[1] = tested on: osteoarthritis; conditions: intra-articular injection; human clinical studies; compared to a placebo control
[2] = tested on: collagen-induced arthritis; conditions: mice with collagen-induced arthritis treated with SOD3

Row | Molecule | treatment of osteoarthritis [1] | histology of the joint [2] | joint swelling and deformity [2]
1 | SOD derived from bovine erythrocytes: superoxide dismutase derived from bovine erythrocytes, injected intra-articularly to treat osteoarthritis | significant success when compared to a placebo control | – | –
2 | Extracellular superoxide dismutase [Cu—Zn] (protein, UniProt P08294 19-240, looked up) Extracellular superoxide …: WTGEDSAEPNSDSAEWIRDMYAKVTEIWQEVMQRRDDDGALHAACQVQPSATLDAAQPRVTGVVLFRQLAPRAKLDAFFALEGFPTEPNSSSRAIHVHQFGDLSQGCESTGPHYNPLAVPHPQHPGDFGNFAVRDGSLWRYRAGLAASLAGPHSIVGRAVVVHAGEDDLGRGGNQASVENGNAGRRLACCVVGVCGPGLWERQAREHSERKKRRRESECKAA | – | less destruction of cartilage and bone, less infiltration of mononuclear cells, and less proliferation of synovial cells | suppression of joint swelling and deformity
